± gives the standard deviation of the averaged measurements.
System: Saccharomyces cerevisiae
Assay: protein stability index of tFT-peptide fusion (C-terminal peptide) (PSI (0-1 scale)); higher = more stable (slower turnover)
Conditions: genetic background: wild type; temperature: 37 C
Protocol: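 MPS profiling in S. cerevisiae of the tFT-X12 degron library: putative degron peptides plus stable controls, 12 aa, fused to the C-terminus of a sfGFP-mCherry timer. Cells are FACS-sorted into 8 mCherry/sfGFP bins and deep-sequenced. PSI runs from 0 (unstable) to 1 (stable). Backgrounds are wild type, das1Δ and doa10Δ at 30 °C, and wild type, das1Δ, cdc34-1 and cdc53-1 at 37 °C; 2-3 technical replicates each.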
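Also: PSI is a weighted mean of sequencing reads over stability bins, variants kept only with over 10 reads, mCherry proximal and sfGFP distal, peptide attached via GGGS linker.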

| Sequence | protein stability index |
| --- | --- |
| AFRRFLLYCRFI | 0.201 ± 0.029 |
| AIPRWLALLVAH | 0.238 ± 0.0066 |
| ALWRAWLRLRIW | 0.0985 ± 0.012 |
| AQLVYVITAVRT | 0.507 ± 0.029 |
| ARLTNYFVEWLS | 0.592 ± 0.012 |
| ASAYCCMITRLN | 0.1737 ± 0.00037 |
| ASGVFSRLVLVS | 0.282 ± 0.0035 |
| ASPLRLFIPFLF | 0.413 ± 0.0079 |
| AWLWCVCWSIMR | 0.453 ± 0.0073 |
| AYFPSQRVHHLM | 0.374 ± 0.03 |
| CACAVPFLLLFF | 0.494 ± 0.023 |
| CCSRYLSNLCPI | 0.726 ± 0.017 |
| CDSRIRKIWSYL | 0.494 ± 0.0054 |
| CFFPLFLCTAFC | 0.492 ± 0.022 |
| CFSVFSVLCFFV | 0.513 ± 0.0066 |
| CFVFYALFGFAV | 0.431 ± 0.046 |
| CLISILLFLCFT | 0.446 ± 0.0076 |
| CLLVCCCFYRNV | 0.523 ± 0.0091 |
| CLVKIVIFFLFS | 0.34 ± 0.019 |
| CNIYVLIIIKKY | 0.325 ± 0.049 |

| Sequence | protein stability index |
| --- | --- |
| CPPPCPLYMLLC | 0.171 ± 0.013 |
| CRLLYYIPCGLF | 0.5973 ± 0.00064 |
| CRRLCGWLFVCV | 0.513 ± 0.036 |
| CSFELSVCLMLR | 0.1855 ± 0.0013 |
| CSLRLCVRGAIV | 0.675 ± 0.024 |
| CSSSNRRRYFVL | 0.191 ± 0.0041 |
| CVARWPRPAGSS | 0.715 ± 0.015 |
| CVFFPFLGVCYV | 0.451 ± 0.0089 |
| CVGRPIALAVRT | 0.51959 ± 0.00012 |
| CVLLRPGFLVLV | 0.216 ± 0.016 |
| CVYGILLLVDVR | 0.143 ± 0.066 |
| CWDNTLKTMRQM | 0.5969 ± 0.0032 |
| CWLFCACFVRLV | 0.07618 ± 0.00043 |
| CYFLFFLSYSLE | 0.439 ± 0.0046 |
| CYTGYMYKLLVG | 0.423 ± 0.015 |
| DFHLPWPVALVW | 0.24 ± 0.013 |
| DFIVVIRFIQII | 0.235 ± 0.0043 |
| DFVYFPPIPVSS | 0.409 ± 0.006 |
| DISWVFVLLIFF | 0.445 ± 0.011 |
| DMWYLLWRVCYI | 0.56 ± 0.01 |

| Sequence | protein stability index |
| --- | --- |
| EGALSGGGKTSG | 0.692 ± 0.018 |
| EKIIVAVLFVVP | 0.439 ± 0.02 |
| ENKGGNQKRRKK | 0.698 ± 0.035 |
| EQMRRYILVSYV | 0.4255 ± 0.0019 |
| ERFRLYFRPGIF | 0.58 ± 0.008 |
| ESCWVSRVGVCR | 0.687 ± 0.018 |
| EVTRMLRVVREI | 0.588 ± 0.02 |
| EWLITLRKCGVA | 0.533 ± 0.006 |
| EWRPYKRNKQSS | 0.4112 ± 0.0037 |
| EWVGIFRGVSVF | 0.374 ± 0.0073 |
| FAKRVARVAREH | 0.383 ± 0.014 |
| FALFLFFGPLIV | 0.4857 ± 0.0017 |
| FASFLFFCYIIF | 0.213 ± 0.018 |
| FCCFFPFLWRVF | 0.455 ± 0.0052 |
| FCFYLLFLGFTR | 0.523 ± 0.029 |
| FCLFFFPSLFFF | 0.443 ± 0.017 |
| FCRLCYLLLFCC | 0.20208 ± 0.0002 |
| FELVWLCIIGAL | 0.2271 ± 0.0017 |
| FFCFFWLFHWFG | 0.5356 ± 0.0044 |
| FFCSLIISRFLL | 0.299 ± 0.0054 |

System: Saccharomyces cerevisiae
Assay: as above
Conditions: genetic background: wild type; temperature: 30 C

| Sequence | protein stability index |
| --- | --- |
| AFRRFLLYCRFI | 0.198 ± 0.012 |
| AIPRWLALLVAH | 0.241 ± 0.0097 |
| ALWRAWLRLRIW | 0.205 ± 0.0025 |
| AQLVYVITAVRT | 0.42 ± 0.029 |
| ARLTNYFVEWLS | 0.4612 ± 0.00085 |
| ASAYCCMITRLN | 0.172 ± 0.042 |
| ASGVFSRLVLVS | 0.3097 ± 0.0016 |
| ASPLRLFIPFLF | 0.312 ± 0.058 |
| AWLWCVCWSIMR | 0.395 ± 0.025 |
| AYFPSQRVHHLM | 0.333 ± 0.017 |
| CACAVPFLLLFF | 0.411 ± 0.025 |
| CCSRYLSNLCPI | 0.0813 ± 0.051 |
| CDSRIRKIWSYL | 0.36 ± 0.0036 |
| CFFPLFLCTAFC | 0.425 ± 0.017 |
| CFSVFSVLCFFV | 0.437 ± 0.029 |
| CFVFYALFGFAV | 0.401 ± 0.013 |
| CLISILLFLCFT | 0.4162 ± 0.0015 |
| CLLVCCCFYRNV | 0.469 ± 0.0069 |
| CLVKIVIFFLFS | 0.349 ± 0.035 |
| CNIYVLIIIKKY | 0.266 ± 0.1 |

| Sequence | protein stability index |
| --- | --- |
| CPPPCPLYMLLC | 0.264 ± 0.025 |
| CRLLYYIPCGLF | 0.49841 ± 0.00044 |
| CRRLCGWLFVCV | 0.46 ± 0.0068 |
| CSFELSVCLMLR | 0.188 ± 0.032 |
| CSLRLCVRGAIV | 0.0268 ± 0.022 |
| CSSSNRRRYFVL | 0.187 ± 0.023 |
| CVARWPRPAGSS | 0.723 ± 0.026 |
| CVFFPFLGVCYV | 0.425 ± 0.017 |
| CVGRPIALAVRT | 0.511 ± 0.022 |
| CVLLRPGFLVLV | 0.234 ± 0.011 |
| CVYGILLLVDVR | 0.189 ± 0.0074 |
| CWDNTLKTMRQM | 0.228 ± 0.1 |
| CWLFCACFVRLV | 0.101 ± 0.0076 |
| CYFLFFLSYSLE | 0.297 ± 0.0097 |
| CYTGYMYKLLVG | 0.346 ± 0.027 |
| DFHLPWPVALVW | 0.387 ± 0.039 |
| DFIVVIRFIQII | 0.232 ± 0.017 |
| DFVYFPPIPVSS | 0.337 ± 0.018 |
| DISWVFVLLIFF | 0.382 ± 0.026 |
| DMWYLLWRVCYI | 0.48 ± 0.028 |

| Sequence | protein stability index |
| --- | --- |
| EGALSGGGKTSG | 0.651 ± 0.24 |
| EKIIVAVLFVVP | 0.437 ± 0.043 |
| ENKGGNQKRRKK | 0.559 ± 0.18 |
| EQMRRYILVSYV | 0.352 ± 0.033 |
| ERFRLYFRPGIF | 0.234 ± 0.091 |
| ESCWVSRVGVCR | 0.694 ± 0.076 |
| EVTRMLRVVREI | 0.456 ± 0.065 |
| EWLITLRKCGVA | 0.463 ± 0.048 |
| EWRPYKRNKQSS | 0.353 ± 0.13 |
| EWVGIFRGVSVF | 0.371 ± 0.0074 |
| FAKRVARVAREH | 0.33 ± 0.021 |
| FALFLFFGPLIV | 0.4287 ± 0.0032 |
| FASFLFFCYIIF | 0.197 ± 0.0022 |
| FCCFFPFLWRVF | 0.378 ± 0.018 |
| FCFYLLFLGFTR | 0.431 ± 0.011 |
| FCLFFFPSLFFF | 0.371 ± 0.016 |
| FCRLCYLLLFCC | 0.254 ± 0.022 |
| FELVWLCIIGAL | 0.173 ± 0.04 |
| FFCFFWLFHWFG | 0.443 ± 0.028 |
| FFCSLIISRFLL | 0.214 ± 0.04 |

Reference: the supplement of paper PMC10724198
